Measurements: patent US20230357447A1 (JANUX THERAPEUTICS, published 2023)
Ends that are not written are not given here.

Key:
[1] = biological target: T1, anti-CD28 scFv (SEQ ID NO: 9); experiment: competition ELISA: peptide titrated against 2 nM anti-CD28 scFv; binding of the scFv to captured biotinylated CD28 antigen is read; table prints 'IC50 nM' but the axis is Log [Peptide, uM]; no fall of the signal
T1 construct: also called Anti-CD28 scFv (VH-linker 1-VL)

[2] = biological target: T2, Ab-12, anti-PD-L1xCD28 non-masked antibody in Vh format; experiment: competition ELISA: peptide titrated against 5 nM Ab-12; binding of Ab-12 to captured biotinylated CD28 antigen is read; table prints 'IC50 nM' but the axis is Log [Peptide, uM]; no fall of the signal
T2 construct: also called PDL1xCD28 non-masked (Vh)

[3] = biological target: T3, Anti-CD28 scFv (VH-linker 1-VL) (biotinylated (site not stated)); experiment: phage ELISA, captured biotinylated scFv; background signal 0.065
T3 construct: biotinylated and captured on neutravidin coated plates in the phage ELISA

[4] = biological target: T3, Anti-CD28 scFv (VH-linker 1-VL); experiment: phage ELISA, scFv wells pre-incubated with soluble CD28 (competitor); background signal 0.065
[5] = biological target: T3, Anti-CD28 scFv (VH-linker 1-VL); experiment: phage ELISA, scFv wells pre-incubated with soluble CD28 (competitor); background signal 0.071
[6] = biological target: T3, Anti-CD28 scFv (VH-linker 1-VL); experiment: phage ELISA, captured biotinylated scFv; background signal 0.062
[7] = biological target: T3, Anti-CD28 scFv (VH-linker 1-VL); experiment: phage ELISA, scFv wells pre-incubated with soluble CD28 (competitor); background signal 0.062
[8] = biological target: T3, Anti-CD28 scFv (VH-linker 1-VL); experiment: phage ELISA, captured biotinylated scFv; background signal 0.071
[9] = biological target: T2, Ab-12, anti-PD-L1xCD28 non-masked …; experiment: competition ELISA: peptide titrated against 5 nM Ab-12; binding of Ab-12 to captured biotinylated CD28 antigen is read
[10] = biological target: T3, Anti-CD28 scFv (VH-linker 1-VL); experiment: phage ELISA, captured biotinylated scFv; background signal 0.073
[11] = biological target: T3, Anti-CD28 scFv (VH-linker 1-VL); experiment: phage ELISA, scFv wells pre-incubated with soluble CD28 (competitor); background signal 0.073
[12] = biological target: T3, Anti-CD28 scFv (VH-linker 1-VL); experiment: phage ELISA, scFv wells pre-incubated with soluble CD28 (competitor); background signal 0.063

B1: Peptide-7 (peptide)
peptide: FCTPREWSFLNFVC
modifications: cysteine pairing not given here; also: biotinylated when captured on plate, site not given here
notes: biotinylated when captured on the plate
IC50 [1]: > 100 nM

B2: Peptide-4 (peptide)
peptide: SFCGLFLDLWICEF
modifications: cysteine pairing not given here; also: biotinylated, site not given here
notes: as for B1
IC50 [1]: > 100 nM

B3: Peptide-8 (peptide)
peptide: CFAYLWIDSWIRVC
modifications: cysteine pairing not given here; also: biotinylated when captured on plate, site not given here
notes: as for B1
IC50 [2]: > 100 nM | IC50 [1]: > 100 nM

B4: Phage-24 (peptide)
peptide: MDWCPLYLWNECFN
Phage binding ELISA CD28 scFv signal [3]: 2.61 | Phage binding ELISA CD28 scFv signal in presence of CD28 [4]: 0.247

B5: Phage-80 (peptide)
peptide: MDWCPMYLWNECFS
Phage binding ELISA CD28 scFv signal in presence of CD28 [5]: 0.411

B6: Phage-52 (peptide)
peptide: MDWCPINLWDECFS
Phage binding ELISA CD28 scFv signal [6]: 1.5 | Phage binding ELISA CD28 scFv signal in presence of CD28 [7]: 0.096

B7: Phage-71 (peptide)
peptide: MDWCPRYLWHECFA
Phage binding ELISA CD28 scFv signal [8]: 2.63 | Phage binding ELISA CD28 scFv signal in presence of CD28 [5]: 0.429

B8: Phage-73 (peptide)
peptide: MDWCPRALWHECFN
Phage binding ELISA CD28 scFv signal [8]: 2.69 | Phage binding ELISA CD28 scFv signal in presence of CD28 [5]: 0.401

B9: Phage-95 (peptide)
peptide: MDWCPRFLWSECFN
Phage binding ELISA CD28 scFv signal [6]: 2.57 | Phage binding ELISA CD28 scFv signal in presence of CD28 [7]: 0.227

B10: Phage-83 (peptide)
peptide: MDWCPRFLWDECFN
Phage binding ELISA CD28 scFv signal [3]: 2.63 | Phage binding ELISA CD28 scFv signal in presence of CD28 [4]: 0.483

B11: Phage-100 (peptide)
peptide: MDWCPRYLWTECFN
Phage binding ELISA CD28 scFv signal [6]: 2.56 | Phage binding ELISA CD28 scFv signal in presence of CD28 [7]: 0.549

B12: Phage-32 (peptide)
peptide: MDWCPRDMWSVCFS
Phage binding ELISA CD28 scFv signal [6]: 2.62 | Phage binding ELISA CD28 scFv signal in presence of CD28 [7]: 0.207

B13: Peptide-14 (peptide)
peptide: IDCIMVHMVKPWCF
modifications: cysteine pairing not given here; also: biotinylated, site not given here
notes: as for B1
IC50 [2]: > 100 nM

B14: Phage-89 (peptide)
peptide: MDWCPRALWNVCFN
Phage binding ELISA CD28 scFv signal [3]: 2.6 | Phage binding ELISA CD28 scFv signal in presence of CD28 [4]: 0.472

B15: Phage-90 (peptide)
peptide: MDWCPIDLWHLCFY
Phage binding ELISA CD28 scFv signal [6]: 2.59 | Phage binding ELISA CD28 scFv signal in presence of CD28 [7]: 0.488

B16: Peptide-15 (peptide)
peptide: NCQPWYWNMFAFGC
modifications: cysteine pairing not given here; also: biotinylated, site not given here
notes: as for B1
IC50 [2]: > 100 nM

B17: Peptide-16 (peptide)
peptide: NCQPWYWNMIAFGC
modifications: cysteine pairing not given here; also: biotinylated, site not given here
notes: as for B1
IC50 [2]: > 100 nM

B18: Peptide-6 (peptide)
peptide: VNCMRVHRTLTWCV
modifications: cysteine pairing not given here; also: biotinylated when captured on plate, site not given here
notes: as for B1
IC50 [1]: > 100 nM

B19: Peptide-49 (peptide)
peptide: MHWCPVDLWYLCYN
modifications: cysteine pairing not given here; also: biotinylated, site not given here
notes: Synthetic biotinylated peptide loaded on streptavidin biosensors
IC50 [9]: 170 nM

B20: Phage-62 (peptide)
peptide: MDWCPSYLWNECFF
Phage binding ELISA CD28 scFv signal [3]: 2 | Phage binding ELISA CD28 scFv signal in presence of CD28 [4]: 0.133

B21: Phage-70 (peptide)
peptide: ITWCPSSMWNRCFI
Phage binding ELISA CD28 scFv signal [3]: 0.379 | Phage binding ELISA CD28 scFv signal in presence of CD28 [4]: 0.11

B22: Phage-57 (peptide)
peptide: MDWCPRHRWVDCFY
Phage binding ELISA CD28 scFv signal [10]: 0.478 | Phage binding ELISA CD28 scFv signal in presence of CD28 [11]: 0.11

B23: Phage-102 (peptide)
peptide: MDWCPRYLWAECFY
Phage binding ELISA CD28 scFv signal in presence of CD28 [12]: 0.354

B24: Phage-69 (peptide)
peptide: MDWCPIHMWADCFA
Phage binding ELISA CD28 scFv signal [3]: 2.46 | Phage binding ELISA CD28 scFv signal in presence of CD28 [4]: 0.143

B25: Peptide-5 (peptide)
peptide: DNCYVIWGFEWQCR
modifications: cysteine pairing not given here; also: biotinylated when captured on plate, site not given here
notes: as for B1
IC50 [1]: > 100 nM

B26: Phage-41 (peptide)
peptide: MAWCPRDKWSECFS
Phage binding ELISA CD28 scFv signal [6]: 0.853 | Phage binding ELISA CD28 scFv signal in presence of CD28 [7]: 0.147

B27: Phage-51 (peptide)
peptide: MDWCPMDLWDYCFN
Phage binding ELISA CD28 scFv signal [8]: 1.64 | Phage binding ELISA CD28 scFv signal in presence of CD28 [5]: 0.107

B28: Phage-42 (peptide)
peptide: MDWCPRHLWVHCFN
Phage binding ELISA CD28 scFv signal [8]: 2.5 | Phage binding ELISA CD28 scFv signal in presence of CD28 [5]: 0.254

B29: Peptide-2 (peptide)
peptide: LICKSGSILILCAQ
modifications: cysteine pairing not given here; also: biotinylated, site not given here
notes: as for B1
IC50 [1]: > 100 nM

B30: Phage-53 (peptide)
peptide: MDWCPMHLWNKCFN
Phage binding ELISA CD28 scFv signal [8]: 1.04 | Phage binding ELISA CD28 scFv signal in presence of CD28 [5]: 0.122

B31: Phage-56 (peptide)
peptide: MHWCPMDQWSNCFN
Phage binding ELISA CD28 scFv signal [6]: 0.515 | Phage binding ELISA CD28 scFv signal in presence of CD28 [7]: 0.084

B32: Peptide-1 (peptide)
peptide: YWYCSPSIVRCVLV
modifications: cysteine pairing not given here; also: biotinylated, site not given here
notes: as for B1
IC50 [1]: > 100 nM

B33: Phage-29 (peptide)
peptide: MDWCPRDLWVHCFA
Phage binding ELISA CD28 scFv signal [6]: 2.55 | Phage binding ELISA CD28 scFv signal in presence of CD28 [7]: 0.179

B34: Peptide-3 (peptide)
peptide: SPCGLFQWMEICEF
modifications: cysteine pairing not given here; also: biotinylated, site not given here
notes: as for B1
IC50 [1]: > 100 nM

B35: Peptide-17 (peptide)
peptide: GCFTWSQRTFPFTC
modifications: cysteine pairing not given here; also: biotinylated, site not given here
notes: as for B1
IC50 [2]: > 100 nM

B36: Peptide-18 (peptide)
peptide: CFYAEYYDQVYSFC
modifications: cysteine pairing not given here; also: biotinylated, site not given here
notes: as for B1
IC50 [2]: > 100 nM

B37: Phage-94 (peptide)
peptide: MDWCPRDLWSLCFY
Phage binding ELISA CD28 scFv signal [3]: 2.57 | Phage binding ELISA CD28 scFv signal in presence of CD28 [4]: 0.246

B38: Peptide-50 (peptide)
peptide: MDWCPVHLWSVCFA
modifications: cysteine pairing not given here; also: biotinylated, site not given here
notes: as for B19
IC50 [9]: 2340 nM
